Holding throughout (assay): EMSA; 160 uM protein, 120 nM RNA; 15 mM Tris-HCl pH 7.0, 150 mM NaCl, 10% glycerol, 2 U/ul RNase inhibitor, 22 C, 15 min; 6% native TBE PAGE in 0.5x TBE
Conditions in all cases: protein: recombinant; tags: N-terminal His6, thrombin site; label: 5'-6-FAM

In data set [1] the target is T1, Tric1 SAM domain Asp235Ala (Arabidopsis thaliana, UniProt Q9SCK3, D235A).
T1 sequence: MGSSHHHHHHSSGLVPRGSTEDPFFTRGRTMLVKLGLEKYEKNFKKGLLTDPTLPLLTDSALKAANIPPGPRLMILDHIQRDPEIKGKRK

Data set [2] addresses T2, Tric1 SAM domain Asp235Ala:Gly241Glu (Arabidopsis thaliana, UniProt Q9SCK3, D235A;G241E).
T2 sequence: T1 sequence with G70E

Data set [3] concerns the target T3, Tric1 SAM domain Gly241Glu (Arabidopsis thaliana, UniProt Q9SCK3, G241E).
T3 sequence: T1 sequence with A64D, G70E

A further data set has as its target T4, Tric1 SAM domain WT (Arabidopsis thaliana, UniProt Q9SCK3).
T4 sequence: T1 sequence with A64D

Numbering of substitutions follows the chain as printed.

B1: tRNAala T-arm (structured_RNA)
RNA: UCGCUUUGCAUGCGA
As to B1, the binding result in data set [1] is “no binding”; in data set [2], “no binding”; in data set [3] it was “no binding”; with Tric1 SAM domain WT, “binds”.
